Experimental data as given in US20220025021A1 (BETH ISRAEL DEACONESS MEDICAL CENTER, published 2022).
Changes are numbered by the printed parent chain.

B1: MS-70 (antibody, V domains shown)
VH: QVQLVQSGPEVRKPGTSVKVSCKAPGNTLKTYDLHWVRSVPGQGLQWMGWISHEGDKKVIVERFKAKVTIDWDRSTNTAYLQLSGLTSGDTAVYYCAKGSKHRLRDYALYDDDGALNWAVDVDYLSNLEFWGQGTAVTVSS
VL: DFVLTQSPHSLSVTPGESASISCKSSHSLIHGDRNNYLAWYVQKPGQSPQLLIYLASSRASGVPDRFSGSGSDKDFTLKISRVETEDVGTYYCMQGRESPWTFGQGTKVDIKR
B2: MS-74 (antibody, V domains shown)
VH: B1 VH
VL: B1 VL with Q47R, T90V
B3: MS-81 (antibody, V domains shown)
VH: B1 VH with Q82E
VL: B1 VL with Q47R
B4: MS-75 (antibody, V domains shown)
VH: B1 VH with P25S
VL: B1 VL with Q47R
B5: MS-77 (antibody, V domains shown)
VH: B1 VH with L29F
VL: B1 VL with Q47R
B6: MS-78 (antibody, V domains shown)
VH: B1 VH with Q46E
VL: B1 VL with Q47R
B7: MS-82 (antibody, V domains shown)
VH: B1 VH with T87R
VL: B1 VL with Q47R
B8: MS-80 (antibody, V domains shown)
VH: B1 VH with W72R
VL: B1 VL with Q47R
B9: MS-72 (antibody, V domains shown)
VH: B1 VH
VL: B1 VL with Q47R, K74T
B10: MS-79 (antibody, V domains shown)
VH: B1 VH with D71T
VL: B1 VL with Q47R
B11: MS-76 (antibody, V domains shown)
VH: B1 VH with N27Y
VL: B1 VL with Q47R
B12: MS-68 (antibody)
VH: not shown
VL: DFVLTQSPHSLPVTPGESASISCKSSHSLIHGDRNNYLAWYVQKPGRSPQLLIYLASSRASGVPDRFSGSGSDKDFTLKISRVETEDVGTYYCMQGRESPWTFGQGTKVDIKRTVAAPSVFIFPPSDEQLKSGTASVVCLLNNFYPREAKVQWKVDNALQSGNSQESVTEQDSKDSTYSLSSTLTLSKADYEKHKVYACEVTHQGLSSPVTKSFNRGEC
B13: MS-73 (antibody)
VH: not shown
VL: B12 VL with P12S, T85A
B14: MS-69 (antibody)
VH: not shown
VL: B12 VL with P12S, S18P
B15: MS-71 (antibody)
VH: not shown
VL: B12 VL with P12S, D73G

How the values were obtained:
Assay in all cases: cell-based or functional assay
[1] = target: HIV-1 Env of pseudovirus RHPA4259.7 (HIV-1)
[2] = target: HIV-1 Env of pseudovirus Du172.17 (HIV-1)
[3] = target: HIV-1 Env of pseudovirus BB1012-11.TC21 (HIV-1)
[4] = target: HIV-1 Env of pseudovirus 0260.v5.c36 (HIV-1)
[5] = target: HIV-1 Env of pseudovirus CNE52 (HIV-1)
[6] = target: HIV-1 Env of pseudovirus SC422661.8 (HIV-1)

Binder | neutralization IC50 [1] | neutralization IC80 [1] | neutralization IC50 [2] | neutralization IC80 [2] | neutralization IC50 [3] | neutralization IC80 [3] | neutralization IC50 [4] | neutralization IC80 [4] | neutralization IC50 [5] | neutralization IC80 [5] | neutralization IC50 [6] | neutralization IC80 [6]
B1 | 0.182 µg/mL | 0.734 µg/mL | 1.49 µg/mL | 6.05 µg/mL | 0.021 µg/mL | 0.079 µg/mL | 0.028 µg/mL | 0.103 µg/mL | 0.301 µg/mL | 2.55 µg/mL | 0.391 µg/mL | 2.43 µg/mL
B2 | 0.132 µg/mL | 0.461 µg/mL | 1.46 µg/mL | 5.57 µg/mL | 0.021 µg/mL | 0.093 µg/mL | 0.017 µg/mL | 0.086 µg/mL | 0.169 µg/mL | 1.46 µg/mL | 0.388 µg/mL | 3.51 µg/mL
B3 | 0.202 µg/mL | 0.897 µg/mL | 1.65 µg/mL | 6.37 µg/mL | 0.024 µg/mL | 0.102 µg/mL | 0.02 µg/mL | 0.075 µg/mL | 0.212 µg/mL | 1.8 µg/mL | 0.418 µg/mL | 4.25 µg/mL
B4 | 0.276 µg/mL | 1.31 µg/mL | 3.56 µg/mL | 16.1 µg/mL | 0.029 µg/mL | 0.134 µg/mL | 0.034 µg/mL | 0.137 µg/mL | 0.687 µg/mL | 7.55 µg/mL | 0.489 µg/mL | 9.41 µg/mL
B5 | 0.209 µg/mL | 0.734 µg/mL | 2.23 µg/mL | 12.2 µg/mL | 0.023 µg/mL | 0.103 µg/mL | 0.019 µg/mL | 0.101 µg/mL | 0.322 µg/mL | 2.71 µg/mL | 0.373 µg/mL | 3.59 µg/mL
B6 | 0.241 µg/mL | 0.841 µg/mL | 1.71 µg/mL | 7 µg/mL | 0.024 µg/mL | 0.105 µg/mL | 0.02 µg/mL | 0.095 µg/mL | 0.233 µg/mL | 1.39 µg/mL | 0.635 µg/mL | 3.63 µg/mL
B7 | 0.192 µg/mL | 0.672 µg/mL | 1.88 µg/mL | 7 µg/mL | 0.023 µg/mL | 0.108 µg/mL | 0.016 µg/mL | 0.051 µg/mL | 0.206 µg/mL | 1.18 µg/mL | 0.387 µg/mL | 3.29 µg/mL
B8 | 0.267 µg/mL | 1.24 µg/mL | 15.2 µg/mL | > 25 µg/mL | 0.02 µg/mL | 0.086 µg/mL | 0.041 µg/mL | 0.321 µg/mL | 5.25 µg/mL | > 25 µg/mL | 0.451 µg/mL | > 25 µg/mL
B9 | 0.247 µg/mL | 1.16 µg/mL | 1.75 µg/mL | 8.76 µg/mL | 0.023 µg/mL | 0.089 µg/mL | 0.023 µg/mL | 0.114 µg/mL | 0.302 µg/mL | 4.53 µg/mL | 0.373 µg/mL | 2.83 µg/mL
B10 | 0.221 µg/mL | 0.792 µg/mL | 7.28 µg/mL | > 25 µg/mL | 0.019 µg/mL | 0.08 µg/mL | 0.028 µg/mL | 0.159 µg/mL | 2.42 µg/mL | > 25 µg/mL | 0.587 µg/mL | > 25 µg/mL
B11 | 0.242 µg/mL | 0.842 µg/mL | 1.7 µg/mL | 9.68 µg/mL | 0.013 µg/mL | 0.059 µg/mL | 0.01 µg/mL | 0.06 µg/mL | 0.174 µg/mL | 1.37 µg/mL | 0.36 µg/mL | 6.46 µg/mL
B12 | 0.199 µg/mL | 0.759 µg/mL | 1.82 µg/mL | 6.8 µg/mL | 0.023 µg/mL | 0.076 µg/mL | 0.019 µg/mL | 0.073 µg/mL | 0.136 µg/mL | 1.13 µg/mL | 0.538 µg/mL | 2.02 µg/mL
B13 | 0.094 µg/mL | 0.549 µg/mL | 0.934 µg/mL | 5 µg/mL | 0.023 µg/mL | 0.086 µg/mL | 0.018 µg/mL | 0.065 µg/mL | 0.207 µg/mL | 1.81 µg/mL | 0.384 µg/mL | 2.54 µg/mL
B14 | 0.139 µg/mL | 0.811 µg/mL | 1.4 µg/mL | 5.6 µg/mL | 0.018 µg/mL | 0.071 µg/mL | 0.021 µg/mL | 0.078 µg/mL | 0.129 µg/mL | 1.9 µg/mL | 0.609 µg/mL | 3.37 µg/mL
B15 | 0.164 µg/mL | 0.583 µg/mL | 1.29 µg/mL | 6.07 µg/mL | 0.015 µg/mL | 0.054 µg/mL | 0.022 µg/mL | 0.062 µg/mL | 0.172 µg/mL | 2.59 µg/mL | 0.273 µg/mL | 1.94 µg/mL
